Source: article PMC6555819, “Comprehensive study of nuclear receptor DNA binding provides a revised framework for understanding receptor specificity”

B1: NRC3_random_hg19_481_o1 (dsDNA)
DNA 1: GCCCTTCTTAGTATCTGGGACAACAGGTGTGTGCTAGCGATTGACAGCGTAGAATGAAGG
DNA 2: CCTTCATTCTACGCTGTCAATCGCTAGCACACACCTGTTGTCCCAGATACTAAGAAGGGC
B2: NRC3_wobSeed135_DR5_A14C_o1 (dsDNA)
DNA 1: GCCGAACTAGGTCCTTGACAGGACAGTGAATAGTAAGCGATTGACAGCGTAGAATGAAGG
DNA 2: CCTTCATTCTACGCTGTCAATCGCTTACTATTCACTGTCCTGTCAAGGACCTAGTTCGGC
B3: NRC3_random_hg19_88_o1 (dsDNA)
DNA 1: GCAGATTGCTGGCCAACTGCTCCTGATCCATTACTAGCGATTGACAGCGTAGAATGAAGG
DNA 2: CCTTCATTCTACGCTGTCAATCGCTAGTAATGGATCAGGAGCAGTTGGCCAGCAATCTGC
B4: NRC3_random_hg19_11_o1 (dsDNA)
DNA 1: GCTGAGTCAGAACCACCCAGCTAAGCCACCATCAAAGCGATTGACAGCGTAGAATGAAGG
DNA 2: CCTTCATTCTACGCTGTCAATCGCTTTGATGGTGGCTTAGCTGGGTGGTTCTGACTCAGC
B5: NRC3_random_hg19_220_o1 (dsDNA)
DNA 1: GCTTGGTTGCAAGCAATACAAAGCAACTCTTGCTAAGCGATTGACAGCGTAGAATGAAGG
DNA 2: CCTTCATTCTACGCTGTCAATCGCTTAGCAAGAGTTGCTTTGTATTGCTTGCAACCAAGC
B6: NRC3_wobSeed32_DR1_G18C_o1 (dsDNA)
DNA 1: GCTCTTGTAGATCAAAGCTTAAGAAAGCCGAAGCCTGCGATTGACAGCGTAGAATGAAGG
DNA 2: CCTTCATTCTACGCTGTCAATCGCAGGCTTCGGCTTTCTTAAGCTTTGATCTACAAGAGC
B7: NRC3_random_hg19_305_o1 (dsDNA)
DNA 1: GCGACTGCACTCCAGCCTGGGCAATAGAGTGAGACTGCGATTGACAGCGTAGAATGAAGG
DNA 2: CCTTCATTCTACGCTGTCAATCGCAGTCTCACTCTATTGCCCAGGCTGGAGTGCAGTCGC
B8: NRC3_wobSeed50_DR2_A22C_o1 (dsDNA)
DNA 1: GCCCTAGTTGGTCAGGAGGTCCCACACCGGATATGAGCGATTGACAGCGTAGAATGAAGG
DNA 2: CCTTCATTCTACGCTGTCAATCGCTCATATCCGGTGTGGGACCTCCTGACCAACTAGGGC
B9: NRC3_wobSeed28_DR1_T23A_o1 (dsDNA)
DNA 1: GCCCTACTGGGCCAAAGGTCATAGATTCCAATGCTCGCGATTGACAGCGTAGAATGAAGG
DNA 2: CCTTCATTCTACGCTGTCAATCGCGAGCATTGGAATCTATGACCTTTGGCCCAGTAGGGC
B10: NRC3_wobSeed33_DR1_A16T_o1 (dsDNA)
DNA 1: GCATCTCTAGGTAAATGTTCAGTGAATCCCGAGGATGCGATTGACAGCGTAGAATGAAGG
DNA 2: CCTTCATTCTACGCTGTCAATCGCATCCTCGGGATTCACTGAACATTTACCTAGAGATGC
B11: NRC3_random_hg19_211_o1 (dsDNA)
DNA 1: GCATCACTATTCCCAACTTCAGGAGTAACCAGTATTGCGATTGACAGCGTAGAATGAAGG
DNA 2: CCTTCATTCTACGCTGTCAATCGCAATACTGGTTACTCCTGAAGTTGGGAATAGTGATGC
B12: NRC3_random_hg19_493_o1 (dsDNA)
DNA 1: GCGCCTAGCAGTCTATACAATTCTGAAGGATGCACCGCGATTGACAGCGTAGAATGAAGG
DNA 2: CCTTCATTCTACGCTGTCAATCGCGGTGCATCCTTCAGAATTGTATAGACTGCTAGGCGC
B13: NRC3_random_hg19_453_o1 (dsDNA)
DNA 1: GCATGATCATGGCTCACTGCAGCCTCGACCTCCAGAGCGATTGACAGCGTAGAATGAAGG
DNA 2: CCTTCATTCTACGCTGTCAATCGCTCTGGAGGTCGAGGCTGCAGTGAGCCATGATCATGC
B14: NRC3_wobSeed64_DR2_C13G_o1 (dsDNA)
DNA 1: GCTAGCCTAGGTGATTGGGCCAGTATAGTACGCATCGCGATTGACAGCGTAGAATGAAGG
DNA 2: CCTTCATTCTACGCTGTCAATCGCGATGCGTACTATACTGGCCCAATCACCTAGGCTAGC
B15: NRC3_wobSeed4_DR0_G17C_o1 (dsDNA)
DNA 1: GCCCTACTGGGCCAAGCTCATTGATCAGTCAAAGCAGCGATTGACAGCGTAGAATGAAGG
DNA 2: CCTTCATTCTACGCTGTCAATCGCTGCTTTGACTGATCAATGAGCTTGGCCCAGTAGGGC
B16: NRC3_random_hg19_85_o1 (dsDNA)
DNA 1: GCTGGCTGGCACCTGTGTTCCAACAACTTGAGAGAGGCGATTGACAGCGTAGAATGAAGG
DNA 2: CCTTCATTCTACGCTGTCAATCGCCTCTCTCAAGTTGTTGGAACACAGGTGCCAGCCAGC
B17: NRC3_wobSeed90_DR3_G9C_o1 (dsDNA)
DNA 1: GCCATACACGGTCAGCTAGGCCAGAGTAGGGACGGCGCGATTGACAGCGTAGAATGAAGG
DNA 2: CCTTCATTCTACGCTGTCAATCGCGCCGTCCCTACTCTGGCCTAGCTGACCGTGTATGGC
B18: NRC3_wobSeed36_DR1_C4G_o1 (dsDNA)
DNA 1: GCCGGACTGGGGCAAAGGTTACCATACTCAGTACGAGCGATTGACAGCGTAGAATGAAGG
DNA 2: CCTTCATTCTACGCTGTCAATCGCTCGTACTGAGTATGGTAACCTTTGCCCCAGTCCGGC
B19: NRC3_wobSeed36_DR1_C23G_o1 (dsDNA)
DNA 1: GCCCGACTGGGGCAAAGGTTACGATACTCAGTACGAGCGATTGACAGCGTAGAATGAAGG
DNA 2: CCTTCATTCTACGCTGTCAATCGCTCGTACTGAGTATCGTAACCTTTGCCCCAGTCGGGC
B20: NRC3_random_hg19_81_o1 (dsDNA)
DNA 1: GCGACTTTGTTGCCTAGGCTGGAATCTATCATGGCTGCGATTGACAGCGTAGAATGAAGG
DNA 2: CCTTCATTCTACGCTGTCAATCGCAGCCATGATAGATTCCAGCCTAGGCAACAAAGTCGC
B21: NRC3_random_hg19_181_o1 (dsDNA)
DNA 1: GCGCAGCATTTGTGTGCATGTATGCTGTGTGTATGCGCGATTGACAGCGTAGAATGAAGG
DNA 2: CCTTCATTCTACGCTGTCAATCGCGCATACACACAGCATACATGCACACAAATGCTGCGC
B22: NRC3_wobSeed13_DR0_G10C_o1 (dsDNA)
DNA 1: GCCGTCCAACGTCAAGGTCAGTGAAAGAGACTCGAAGCGATTGACAGCGTAGAATGAAGG
DNA 2: CCTTCATTCTACGCTGTCAATCGCTTCGAGTCTCTTTCACTGACCTTGACGTTGGACGGC
B23: NRC3_random_hg19_164_o1 (dsDNA)
DNA 1: GCCATGAGGACCTGCAGCGCAATGACCTCCGAGGCAGCGATTGACAGCGTAGAATGAAGG
DNA 2: CCTTCATTCTACGCTGTCAATCGCTGCCTCGGAGGTCATTGCGCTGCAGGTCCTCATGGC
B24: NRC3_wobSeed63_DR2_G11C_o1 (dsDNA)
DNA 1: GCCGAACTAGCTCACCAGGACAGTGAAGAGGTTGGAGCGATTGACAGCGTAGAATGAAGG
DNA 2: CCTTCATTCTACGCTGTCAATCGCTCCAACCTCTTCACTGTCCTGGTGAGCTAGTTCGGC
B25: NRC3_wobSeed119_DR4_A9G_o1 (dsDNA)
DNA 1: GCGGAACGGGGGCATTCGAGTTGATAGCATGGCGATGCGATTGACAGCGTAGAATGAAGG
DNA 2: CCTTCATTCTACGCTGTCAATCGCATCGCCATGCTATCAACTCGAATGCCCCCGTTCCGC
B26: NRC3_wobSeed125_DR5_A14G_o1 (dsDNA)
DNA 1: GCCCTTACGGGTCGCTGACAGGTTATAGCATTTGGAGCGATTGACAGCGTAGAATGAAGG
DNA 2: CCTTCATTCTACGCTGTCAATCGCTCCAAATGCTATAACCTGTCAGCGACCCGTAAGGGC
B27: NRC3_wobSeed125_DR5_G11T_o1 (dsDNA)
DNA 1: GCCCTTACGGTTCACTGACAGGTTATAGCATTTGGAGCGATTGACAGCGTAGAATGAAGG
DNA 2: CCTTCATTCTACGCTGTCAATCGCTCCAAATGCTATAACCTGTCAGTGAACCGTAAGGGC
B28: NRC3_random_hg19_333_o1 (dsDNA)
DNA 1: GCATGCCTGTAATCCCAGCTACTTGGGAGGCTGAGAGCGATTGACAGCGTAGAATGAAGG
DNA 2: CCTTCATTCTACGCTGTCAATCGCTCTCAGCCTCCCAAGTAGCTGGGATTACAGGCATGC
B29: NRC3_wobSeed76_DR3_A18C_o1 (dsDNA)
DNA 1: GCCCTACTGGGCCAAAACGGTCATTGATGCCGATAAGCGATTGACAGCGTAGAATGAAGG
DNA 2: CCTTCATTCTACGCTGTCAATCGCTTATCGGCATCAATGACCGTTTTGGCCCAGTAGGGC
B30: NRC3_wobSeed72_DR2_G11C_o1 (dsDNA)
DNA 1: GCTCGAGTAGCTTACGGGGGCATTCAGGGATGAAGAGCGATTGACAGCGTAGAATGAAGG
DNA 2: CCTTCATTCTACGCTGTCAATCGCTCTTCATCCCTGAATGCCCCCGTAAGCTACTCGAGC
B31: NRC3_wobSeed41_DR1_T23G_o1 (dsDNA)
DNA 1: GCATATGTAGGTTAAGGGTCATGCAGGTTGGTTCGCGCGATTGACAGCGTAGAATGAAGG
DNA 2: CCTTCATTCTACGCTGTCAATCGCGCGAACCAACCTGCATGACCCTTAACCTACATATGC
B32: NRC3_wobSeed10_DR0_A9C_o1 (dsDNA)
DNA 1: GCATCGAACGGTCGAGGTGAGTATAGAGAAAGGGAAGCGATTGACAGCGTAGAATGAAGG
DNA 2: CCTTCATTCTACGCTGTCAATCGCTTCCCTTTCTCTATACTCACCTCGACCGTTCGATGC
B33: NRC3_wobSeed38_DR1_T12A_o1 (dsDNA)
DNA 1: GCCCTGCTAGGACAATGGTCAGCTAAAGCAGCTCGCGCGATTGACAGCGTAGAATGAAGG
DNA 2: CCTTCATTCTACGCTGTCAATCGCGCGAGCTGCTTTAGCTGACCATTGTCCTAGCAGGGC

Each binder was assayed against PPARg:RXRa (Homo sapiens, UniProt P37231;P19793 full;full) (assay: no ligand; PBM; 180 nM : 90 nM RXRa; PBS pH 7.4, 2% milk, 0.02% Triton X-100, 1 mM DTT, BSA, 0.4 mg/ml salmon testes DNA). Settings: tags: His kept;His cleaved; copies: 1;1; label: surface-attached array probe.
Chain of PPARg:RXRa (P37231 29-505, chain 1 of 2): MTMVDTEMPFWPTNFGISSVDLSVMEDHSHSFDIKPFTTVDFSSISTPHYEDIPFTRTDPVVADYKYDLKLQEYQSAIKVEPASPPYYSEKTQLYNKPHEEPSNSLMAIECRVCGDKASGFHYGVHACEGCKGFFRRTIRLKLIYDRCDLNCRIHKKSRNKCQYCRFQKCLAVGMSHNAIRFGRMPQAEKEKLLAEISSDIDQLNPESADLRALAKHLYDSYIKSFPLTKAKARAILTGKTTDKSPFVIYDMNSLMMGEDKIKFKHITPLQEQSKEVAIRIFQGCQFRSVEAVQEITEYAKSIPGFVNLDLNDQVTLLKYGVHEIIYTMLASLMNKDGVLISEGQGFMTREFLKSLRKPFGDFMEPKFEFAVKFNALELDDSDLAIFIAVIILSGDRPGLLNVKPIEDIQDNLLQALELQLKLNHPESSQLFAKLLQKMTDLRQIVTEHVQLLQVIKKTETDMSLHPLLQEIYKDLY
Chain of PPARg:RXRa (P19793 whole entry, chain 2 of 2): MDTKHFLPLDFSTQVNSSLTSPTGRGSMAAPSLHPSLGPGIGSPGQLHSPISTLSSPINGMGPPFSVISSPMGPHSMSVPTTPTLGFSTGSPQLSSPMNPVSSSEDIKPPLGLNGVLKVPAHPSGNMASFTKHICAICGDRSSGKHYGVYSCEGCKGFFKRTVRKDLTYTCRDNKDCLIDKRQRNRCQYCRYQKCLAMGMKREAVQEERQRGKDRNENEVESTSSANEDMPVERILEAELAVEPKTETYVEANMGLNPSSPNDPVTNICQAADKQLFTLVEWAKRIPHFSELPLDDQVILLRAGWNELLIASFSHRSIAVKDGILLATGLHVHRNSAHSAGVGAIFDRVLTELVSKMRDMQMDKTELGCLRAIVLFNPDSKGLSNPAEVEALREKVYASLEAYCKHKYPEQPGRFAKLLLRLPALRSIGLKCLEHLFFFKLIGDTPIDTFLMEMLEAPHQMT

Going from B1 to B2, the binding signal rises from 0.31 PBM z-score against 500 random probes to 0.43 PBM z-score against 500 random probes.

Going from B3 to B4, the binding signal rises from -0.23 PBM z-score against 500 random probes to -0.05 PBM z-score against 500 random probes.

First: B5
Second: B6
The binding signal of the first is higher: -0.18 PBM z-score against 500 random probes for the first, -0.29 PBM z-score against 500 random probes for the second.

Going from B7 to B8, the binding signal rises from -0.27 PBM z-score against 500 random probes to 0.46 PBM z-score against 500 random probes.

Compared with B9, B10 is lower in binding signal: 12.8 PBM z-score against 500 random probes for the first, 0.4 PBM z-score against 500 random probes for the second.

First: B11
Second: B12
The binding signal of the first is lower: 0.12 PBM z-score against 500 random probes for the first, 0.38 PBM z-score against 500 random probes for the second.

Going from B13 to B14, the binding signal rises from 0.09 PBM z-score against 500 random probes to 0.42 PBM z-score against 500 random probes.

Compared with B15, B16 is lower in binding signal: 0.05 PBM z-score against 500 random probes for the first, -0.09 PBM z-score against 500 random probes for the second.

First: B17
Second: B18
The binding signal of the first is lower: 0.49 PBM z-score against 500 random probes for the first, 12.2 PBM z-score against 500 random probes for the second.

Compared with B19, B20 is lower in binding signal: 12.2 PBM z-score against 500 random probes for the first, -0.16 PBM z-score against 500 random probes for the second.

Compared with B21, B22 is higher in binding signal: -0.13 PBM z-score against 500 random probes for the first, 0.38 PBM z-score against 500 random probes for the second.

Compared with B23, B24 is lower in binding signal: 0.42 PBM z-score against 500 random probes for the first, 0.17 PBM z-score against 500 random probes for the second.

Going from B25 to B26, the binding signal falls from 3 PBM z-score against 500 random probes to 0.49 PBM z-score against 500 random probes.

Compared with B27, B28 is lower in binding signal: 0.49 PBM z-score against 500 random probes for the first, -0.21 PBM z-score against 500 random probes for the second.

B29 and B30 are the same in binding signal: 0.35 PBM z-score against 500 random probes for the first, 0.35 PBM z-score against 500 random probes for the second.

First: B31
Second: B32
The binding signal of the first is higher: 12.4 PBM z-score against 500 random probes for the first, 0.48 PBM z-score against 500 random probes for the second.

In the case of B33, the binding signal is reported as 0.3 PBM z-score against 500 random probes.
